The values that follow come from article PMC3812226, “A New Short Oligonucleotide-Based Strategy for the Precursor-Specific Regulation of microRNA Processing by Dicer”.

For series [1], the target named is T1, hDicer (human recombinant Dicer) (human, UniProt Q9UPY3 1-1922). The experiment in a line: EMSA; no divalent metal, 4 C; Filter binding: 20 mM Tris-HCl pH 7.5, 250 mM NaCl (membrane pre-soak/reaction buffer), 37 C 30 min; hDicer EMSA: 20 min at 4 C, Dicer preincubated without divalent cations (Fig S1), native PAGE. To be noted: protein: commercial; label: 5'-32P. (In EMSA bound probe runs differently from free probe, usually more slowly.)

For series [2], the target named is T1, hDicer (human recombinant Dicer). The experiment in a line: EMSA; 4 C; Filter binding: 20 mM Tris-HCl pH 7.5, 250 mM NaCl (membrane pre-soak/reaction buffer), 37 C 30 min; hDicer EMSA: 20 min at 4 C, Dicer preincubated without divalent cations (Fig S1), native PAGE. The note with it: protein: commercial; label: 5'-32P; single strand.
For series [3] the target is unchanged. Briefly: competition; displaces labeled ATD_13.6; Filter binding: 20 mM Tris-HCl pH 7.5, 250 mM NaCl (membrane pre-soak/reaction buffer), 37 C 30 min; hDicer EMSA: 20 min at 4 C, Dicer preincubated without divalent cations (Fig S1), native PAGE. To be noted: protein: commercial; hairpin.
Series [4] has the same target. The experiment in a line: competition; displaces labeled ATD_13.6 (most profound effect); Filter binding: 20 mM Tris-HCl pH 7.5, 250 mM NaCl (membrane pre-soak/reaction buffer), 37 C 30 min; hDicer EMSA: 20 min at 4 C, Dicer preincubated without divalent cations (Fig S1), native PAGE. The note with it: protein: commercial; hairpin.

B1: ATD_15.52 (structured_RNA)
RNA: GGGAGAAUCAUAAGUAGCGCAGUGAGUCGUUGUGCUGCCCAUGUUAACAGUUAGCC
With B1, the binding result in series [1] is on record as “binds”.

Consider GGGGCAGCGCAG (XNA, 2'-O-methyl at every ribose) [2OMe-AL-210], for which the binding result in series [2] is on record as “binds”.

B2: pre-miR-21 (structured_RNA)
RNA: AGCUUAUCAGACUGAUGUUGACUGUUGAAUCUCAUGGCAACACCAGUCGAUGGGCUGU
With B2, the binding result in series [3] was “binds”.

B3: pre-miR-16-1 (structured_RNA)
RNA: UAGCAGCACGUAAAUAUUGGCGUUAAGAUUCUAAAAUUAUCUCCAGUAUUAACUGUGCUGCUGAA
With B3, in series [4], the binding result is given as “binds”.

B4: pre-miR-33a (structured_RNA)
RNA: GUGCAUUGUAGUUGCAUUGCAUGUUCUGGUGGUACCCAUGCAAUGUUUCCACAGUGCAUC
On to B4, for which, in series [3], the binding result is given as “binds”.
